Laboratory results: FireProtDB (doi:10.1016/j.jmb.2004.06.079)

Details: Chloroflexus aurantiacus (strain ATCC 29366 / DSM 635 / J-10-fl), Thermal, CD, whole UniProt chain shown

B1: Malate dehydrogenase wild type, P80040 (protein)
chain: MRKKISIIGAGFVGSTTAHWLAAKELGDIVLLDFVEGVPQGKALDLYEASPIEGFDVRVTGTNNYADTANSDVIVVTSGAPRKPGMSREDLIKVNADITRACISQAAPLSPNAVIIMVNNPLDAMTYLAAEVSGFPKERVIGQAGVLDAARYRTFIAMEAGVSVEDVQAMLMGGHGDEMVPLPRFSTISGIPVSEFIAPDRLAQIVERTRKGGGEIVNLLKTGSAYYAPAAATAQMVEAVLKDKKRVMPVAAYLTGQYGLNDIYFGVPVILGAGGVEKILELPLNEEEMALLNASAKAVRATLDTLKSL
pH 4.4, sodium acetate 10 mM
  Tm: 80.4 °C
pH 6, potassium phosphate 10 mM
  Tm: 79.4 °C
pH 7.5, potassium phosphate 10 mM
  Tm: 67.8 °C
